From patent publication US20240301385, “DNA MODIFYING ENZYMES AND ACTIVE FRAGMENTS AND VARIANTS THEREOF AND METHODS OF USE” (LIFEEDIT THERAPEUTICS, INC., published 2024)

Target: T1, APG30126-L32-nAPG07433.1 (synthetic)
T1 chain: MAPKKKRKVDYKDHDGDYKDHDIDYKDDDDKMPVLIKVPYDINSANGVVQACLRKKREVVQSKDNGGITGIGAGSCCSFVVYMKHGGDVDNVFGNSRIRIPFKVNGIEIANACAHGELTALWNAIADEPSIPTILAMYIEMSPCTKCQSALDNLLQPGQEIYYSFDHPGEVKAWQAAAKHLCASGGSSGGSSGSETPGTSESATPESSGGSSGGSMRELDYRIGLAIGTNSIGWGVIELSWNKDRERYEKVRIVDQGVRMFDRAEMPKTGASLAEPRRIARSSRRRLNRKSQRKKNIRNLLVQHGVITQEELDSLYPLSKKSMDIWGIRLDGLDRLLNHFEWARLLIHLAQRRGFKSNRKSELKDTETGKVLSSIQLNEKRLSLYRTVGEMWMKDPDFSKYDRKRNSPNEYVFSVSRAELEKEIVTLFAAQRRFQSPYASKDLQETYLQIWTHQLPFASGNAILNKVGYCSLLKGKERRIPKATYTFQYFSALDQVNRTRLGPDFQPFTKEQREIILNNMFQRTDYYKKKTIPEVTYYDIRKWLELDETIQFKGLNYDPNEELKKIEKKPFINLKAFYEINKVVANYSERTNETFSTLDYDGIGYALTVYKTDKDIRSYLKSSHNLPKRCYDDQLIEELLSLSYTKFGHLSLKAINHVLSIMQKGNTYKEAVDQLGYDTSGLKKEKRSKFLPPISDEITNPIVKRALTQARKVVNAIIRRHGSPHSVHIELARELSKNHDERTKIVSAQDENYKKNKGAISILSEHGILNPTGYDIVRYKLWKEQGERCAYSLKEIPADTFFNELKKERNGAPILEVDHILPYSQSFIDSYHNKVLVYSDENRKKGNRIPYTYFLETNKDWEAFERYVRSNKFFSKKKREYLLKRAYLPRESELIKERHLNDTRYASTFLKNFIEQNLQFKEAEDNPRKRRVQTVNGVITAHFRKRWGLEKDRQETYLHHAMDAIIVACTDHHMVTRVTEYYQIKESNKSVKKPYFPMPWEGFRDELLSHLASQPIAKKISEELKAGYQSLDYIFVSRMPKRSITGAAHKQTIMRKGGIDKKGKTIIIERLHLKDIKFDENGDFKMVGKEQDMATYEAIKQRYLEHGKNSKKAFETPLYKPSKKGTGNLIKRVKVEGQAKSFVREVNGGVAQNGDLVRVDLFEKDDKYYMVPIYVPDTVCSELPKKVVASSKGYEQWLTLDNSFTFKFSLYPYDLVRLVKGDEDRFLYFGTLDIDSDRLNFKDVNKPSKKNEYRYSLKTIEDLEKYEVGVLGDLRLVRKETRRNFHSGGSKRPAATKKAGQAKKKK
Test: cell_activity; HEK293FT; PAM SEQ 152
Conditions: tags: SV40 NLS, 3xFLAG N-term; nucleoplasmin NLS C-term
Procedure, shortened: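 Editing read out by next-generation sequencing (MiSeq 2×250) of PCR amplicons spanning the target site, analysed for INDELs or % cytosine conversion per position (position 1 nearest PAM).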

B1: SGN000930 sgRNA ; SGN000930 target (ssRNA ; dsDNA)
RNA: GAACAACUCAAAUGGAAAUGAAUAUGUCAUAGUUCCAUGAAAGCCAAAAGUGGCUUUGAUGUUUCUAUGAUAAGGGUUUCGGCCCGUGGCGUCGGGGAUCGCCUGCCCAUUCCGAUGGGCUUCUCCCCAUUUAUU
DNA 1: GAACAACTCAAATGGAAATGAATAT
DNA 2: ATATTCATTTCCATTTGAGTTGTTC
activity: 1.38 % mutated reads
